Patent US20240026407A1, “MODIFICATION OF SAPONINS” (GLAXOSMITHKLINE BIOLOGICALS SA, priority 2020, published 2024)

B1: 312 (protein, listed as Thermotoga neapolitana)
chain: MEKVNEILSQLTLEEKVKLVVGVGLPGLFGNPHSRVAGAAGETHPVPRVGLPAFVLADGPAGLRINPTRENDENTYYTTAFPVEIMLASTWNRELLEEVGKAMGEEVREYGVDVLLAPAMNIHRNPLCGRNFEYYSEDPVLSGEMASSFVKGVQSQGVGACIKHFVANNQETNRMVVDTIVSERALREIYLRGFEIAVKKSKPWSVMSAYNKLNGKYCSQNEWLLKKVLREEWGFEGFVMSDWYAGDNPVEQLKAGNDLIMPGKAYQVNTERRDEIEEIMEALKEGKLSEEVLDECVRNILKVLVNAPSFKNYRYSNKPDLEKHAKVAYEAGAEGVVLLRNEEALPLSENSKIALFGTGQIETIKGGTGSGDTHPRYAISILEGIKERGLNFDEELAKTYEDYIKKMRETEEYKPRRDSWGTIIKPKLPENFLSEKEIHKLAKKNDVAVIVISRISGEGYDRKPVKGDFYLSDDETDLIKTVSREFHEQGKKVIVLLNIGSPVEVVSWRDLVDGILLVWQAGQETGRIVADVLTGRINPSGKLPTTFPRDYSDVPSWTFPGEPKDNPQKVVYEEDIYVGYRYYDTFGVEPAYEFGYGLSYTTFEYSDLNVSFDGETLRVQYRIENTGGRAGKEVSQVYIKAPKGKIDKPFQELKAFHKTRLLNPGESEEVVLEIPVRDLASFNGEEWVVEAGEYEVRVGASSRNIKLKGTFSVGEERRFKP
B2: 370 (protein, listed as Rhizoctonia solani)
chain: MAPRPFKPLDVEDVISKLSLNEKTRLLAGIDNWHTYPVPRLGVPSLRFTDGPNGARGTKFFEGVPAACFPAATGLGSSWDPEFIQKVGQAIGRDCKDKGCHVLLGPTINIQRSPLGGRGFESYSEDPLLSGTLARAFIKGVQSEGVSATIKHYVTNDSEFERMSMSSELSTRALREIYLRPFELACRDPETAPWAVMTAYNRVNGLHASENKYLLDSVLRKQWGWEGMIMSDWYGTYSADASIKAGLDLEMPGPPTWRADALQRCVVAQKIRVPEIDARVREVLKLINRVAVSGIPENADETGEPKPETIDLLRQAAAHANVLLKNSESLLPISAKDVASIAVIGPNADSPVFSGGGSANLRPYKHTTALEGIAAALQDAGNKVEVQHTIGAHAHKEAPLLGVKHLKTKAGEPGYDIEWFNEDPVQNPDAKRVHYTHGTTSFAFFNDNLPGDDVLHQECWATMTAIFTPEVTGKYEFGAAATGLVDVYVDGKKIIDNSSNPVPGHVFFMTGTVEVLNTVELTAGKPAEIKLQFASPVAARTKGFTQIGAGSLSLEGRGGCRWGGGRTFEDDQGIKEAVDLAKKVDKVVLVVGLNNDWESEGYDRDNMELPRATNRLVSAVLEVNKNTAVVIISGTPVAMPWAESASTIVQSFYSGGEAGNGLADVLFGKVNPSSRLPLTFPVRDEDTPSHLNFPGQNGKVLYAEGVFVGYRHYLTYKKKVLFPFGYGLSYTQFEHSDLKLSGEIGKDSTVKVSVTVKNTGKVAGRDVVQIYVRDLVSRLDRPVKELKGFAKSSLLEPGKSETVTITLDKYAFGYFDDWAGEGRDGEGLWVAEAGDFEIVAASTSEDVGISAGISLKQSFEWL
B3: 152 (protein, listed as Kocuria rosea)
chain: MSDLWHGEEHAPGESDTAMTDATRTSGRAARLTELVDRLSLAEKVHLLTGETAFTLPGNERIGLAALAFSDGPTGVRGLTFVGGDAVALFPSATLIAGAFDDGIAEEVGRMLAEEAQRQHIHVVLGPTINLHRTPLGGRLFEAYSEDPYLTGRTAAAYVRGMQERGTAACLKHLVANESETLRNFMDSRVPETALRELYLLPFEMAVQDAGAWSMMAAYNDVNGVAATEHDHVQNGIVKGEWAWDGLIMSDWFATKRTAASASGGLDLVMPGPGGPWGERLVTAVRAGEVAEETIDDHVLRLLHLAERVGGLTPPGRQSRPWAQDLPAVDSPQRKEQLRRIAVRGMTVVANDGVLPLAVEGDAGQDVALIGRHAIDTVDMGGGSAVVNPPYLSTIAEGLAALLGDRVRVADGPAVRTRPVPADPAFLTDPATGTPGMQVVLLGADGTELTRYHSDSPAISLDGHDDLGEVPATAVLTTILANDAGPVRLGAVGAGRWDLVAEGQELSAELRLEGQDPGEAMLRPPAFAETVELPAAATLTATVAPAPVDWREVLLGDPGLGLAEESHLLQMTTAGKTALVAAPAPRPDDDLLAAAEAAAVAAGTAVVVVGLTEEQETEAADKTTLVLPGRQDELVRRVATAAERTVVVVNAATPVLMPWLDQVDAVLVAGLPGQEGGHAVAAALTGALEPTGRLVTSWPAADGAAPAWDVVPDGDRALSYDDGTFIGHRGYHAGHAPAPLFWFGHGLGYGTWEYGTVRARAGEGGPVVDVELTNTSSRASRETVQVYLDPAEDDQPIRLIGYQGVDVPSGATAAVRVRCDDRLLRRWDDAAGTWAPLAGGGELVLARGLGDVRARVPLA
B4: 35 (protein, listed as Verrucomicrobia bacterium)
chain: MSEPDVENRINGLLKQMSLEEKTSLLHGNSKFNTAGIKRLGIPRLHLSDGPHGVRRETEEHSWGPVGWEDDYVTYLPTGSALASTWNPALGRLFGETLGAEARHRNKDVILGPGINIVRTPVCGRNFEYFGEDPYHVGKMAAEVVRGIQNNDVAACVKHYALNNQEWNRGWVNAIVDERTLREIYLPAFEETVRAGALTFMGAYNRFRGQWCCENKYLVNDILKGEWGFDGVYLSDWGGVHSTRDSALNGLDLEMGTSDNYDEFFFARPLREAVEGGEIPESVVDDKVRRILRVMARIGALDPATRKTGARNTAAHQKAVRAIADEAMVLLKNDGVLPLDIHKTLKLAVIGENADKKHADQGGSSAIRALYEITPLEGLKRRGGDMVKITYVQGYRDTGDAAAFEPIGEPYVQTVDPKAGVRCWKVEYFNNRDLHMPPVTVRYEKSVDFDWQERSPAPNVSEDNFSARMTAEIKPTASGTHHIGLTSDDGSRLKIDGKVVIDHWGDHGEEQKDARVELVAGQTYRFEVEYYDSGKGAMLKLGWVTPDSSAADPEVVFAAALEAAREADAVLVFAGQNHRYDTEGVDRRDIRLHGRQNDLIEAVAAANPRTAVFIISGSAVEMPWIDKVPCVVQAWYAGMEVGNAAAGIVFGDVNPSGKLPITFPKRLEDVPAHSIGQYNDQDCEYREGLLVGYRHFDTRNAEPLFPFGHGLSYTKFTYGNLKVDPATLEVRVSVKNTGARKGKEVVQLYVHDVQSRLPRPVKELKGFEKVELAPGETKEVAFRLDERALAFYDADANRWVVEPGDFDILVGSSSRDIRLKGRLAYAGRKKGPL
B5: 274 (protein, listed as Modestobacter marinus)
chain: MAGDTTAPAELDRPWTNTSLSPQERARELVAAMTLEQKIAQLHGAMDTIDIYSMKADTAEGMEQLAAQIRVERHVAAIEELGIPRFRITNGPVGVGMGDGTPSPPATALPMTIGLAAGFDPALAREYGTVIGSETATLGQHVLEGPGVCLHRTPISGRNFEYFSEDPYLSGVMGVEVARAIQEHGVIAMAKHYVCNDQEYERFRADVEVDERTLRELYLLPFEMLVKDADLAAIMSAYNRVRGTYATEHRYLLHTVLREEWGWQGYVQSDFWSCRSAAPAVNAGLDHEMPDAKWLNEDNVKAALADTSLEIETVDRALVRRYTQMFRFGQFDRPYDPGEIDAEGHGAISRRIGEQIAVLLKNDGAVLPLEPGVQSVVVIGQATYVDEACLGGGGSSKVDPLYTVRPMDGLRDVLQTLGSSADLREVTVADDLSNLAEAQAAAATADVVVIMAGLVATEGADQPDAHMLNDQDRMIAEVGQVNVRTVVVLKDGNPVLMPWIDAVPAVLEAWNQGAEDGHVVADLLFGVVNPAGKLPTTYPRSWADTPFAGHPERYPGTDEGAGYPVLRYSEGRQMGYRWYQAQGITPLFPFGHGLSYTTFELSDLAVSPERTDGAAPLTVQLTVANTGDVAGAEVAQVYLELPEAAQQPPKRLVGFCKIWLEPGAAERISVTIDPAATNHPLSVWDDGAHDFVVLPGEYTVFVGSSSEDTPLSATVTID

Tests used:
[1] = Experiment 4-2: screening of glucosidases for deglycosylation with purified QS-18 (1 mg/ml) at pH 6 and 30 deg C; assay type: biochemical, Quillaja saponaria; conditions: pH 6, 30 degC, 18 hrs, clarified lysate, LCMS/MS
Method: Lysates were prepared in an identical manner to Experiment 4-1 above, except the lysis buffer was prepared in 100 mM potassium phosphate buffer pH 6. QS-18 solution was prepared by dissolving QS-18 in 100 mM potassium phosphate buffer pH 6 (2 mg/mL).
12 uL clarified lysate was transferred into fresh 96 well PCR plates. 12 uL QS-18 solution was added (1 mg/ml final concentration), plates sealed and incubated overnight (30° C.) for 18 hrs. After quenching with 25 uL MeCN and shaking for 10 mins (RT), samples were analysed using the LC-MS/MS protocol described in Experiment 4-1 and enzyme activity determined in an analogous manner.

[2] = Experiment 4-1: screening of glucosidases for deglycosylation with purified QS-18 (0.04 mg/ml) at pH 7.5 and room temperature; assay type: biochemical, Quillaja saponaria; conditions: pH 7.5, room temperature, 20 h, clarified E. coli lysate, QS-18 2150 to QS-21 1988 by LCMS/MS
Method: Nucleotide sequences were sub-cloned into pET24b+ for expression. 10 uL of E. coli cells (One Shot® BL21(DE3) chemically competent E. coli) were transferred to each well of a 96 well PCR plate (prechilled on ice). 10 uL autoclaved water was added to the DNA, resuspended by pipetting, and 1 uL of plasmid DNA (15-30 ng) was transferred to the competent cells. Immediately after addition, the resulting mixture was mixed by pipetting. Cells were heat shocked by placing the plate in a thermal cycler at 42° C. for 30 seconds then transferred directly to an ice bath for 2 min. 100 uL sterile Lysogeny Broth (LB) medium was added to each well containing transformed cells. The content of each plate was transferred into a 96-deep well plate pre-aliquoted with 400 uL LB and the plate was incubated at 37° C. with shaking and 85% humidity for 1 hour. After outgrowth, 500 uL of sterile LB containing 100 ug/mL kanamycin was added to the plates containing cells and plates incubated at 37° C. with shaking overnight (18 hours) with humidity control (85%).
1000 mLs of Overnight Express Media was supplemented with 1 mL kanamycin 50 mg/mL and 20 mL of 50% v/v glycerol added (50 ug/mL kanamycin final and 1% glycerol). 96-Well Assay Block 2 mL plates were aliquoted with 380 uL of media per well. Pre-inoculum (20 uL) from transformation plates was added. The plates were sealed appropriately and incubated at 37° C. at 300 with shaking for 2 h. After 2 h the temperature was lowered to 20° C. and incubation continued for 20 h.
The liquid cultures were centrifuged for 10 minutes at 4° C. The supernatant was discarded, plates blotted on an absorbent material to remove residue and the plates frozen at −80° C.
Lysis buffer was prepared according to the following protocol: • 1. Polymyxin B sulphate (0.5 mg/mL) was suspended in 100 mM potassium phosphate pH 7.5 • 2. The mixture was sonicated until polymyxin B sulphate had dissolved • 3. Lysozyme (1 mg/mL) and benzonase (0.1 uL/mL lysis buffer) were added
2 copies of each cell pellet plate were removed from −80 degC freezer and allowed to thaw. 200 uL of lysis buffer was added to each well of one copy of the cell pellet plates. Plates were shaken at room temperature for 10 mins. 190 uL of cell pellet/lysis buffer was transferred to a corresponding fresh cell pellet plate. These plates were incubated at room temperature with shaking for 2 hours. Lysate was clarified by centrifugation (10 min, 4 degC).
QS-18 was obtained by analogous methods to Example 3, collecting a QS-18 containing phenyl fraction following phenyl treatment (presence of m/z corresponding to key components was confirmed by MS and the phenyl fraction then used without further treatment). QS-18 solution was prepared by diluting aqueous QS-18 (ca 1 mg/mL) with 100 mM potassium phosphate pH 7.5 to 0.2 mg/ml. 40 uL clarified lysate was transferred into fresh 96 well PCR plates. 10 uL QS-18 solution added to each well of lysate to a final concentration of 0.04 mg/ml. Incubated at room temperature with shaking for 20 h. Quenched with 50 uL MeCN and shaken at room temperature for 10 mins. Samples were analysed by LC-MS/MS using a Waters Acquity H class coupled to a Waters Xevo Tandem Quadrupole (TQD) Mass Spectrometer.
Enzyme activity was calculated as: […]
Candidate enzymes with % conversion >0.72%, i.e. >3 S.D. above negative control, were considered to be positive hits and are listed below in Table 7. Sample results are shown in FIG. 10 for a QS-21 standard, FIG. 11 for negative control and FIG. 12 for treatment with the glucosidase of SEQ ID No. 262.

Molecule | Expt 4-2 % conv [1] [%] | Expt 4-1 % conv [2] [%]
B1 | 0.4 | 1.6
B2 | 0.5 | 1.1
B3 | 0.5 | 1.1
B4 | 0.4 | 1.2
B5 | 0.3 | 0.9
